Source: patent US20040172681

System: FasA from Brevibacterium ammoniagenes (multifunctional fatty acid synthase)
Sequence (chain, as listed by the source): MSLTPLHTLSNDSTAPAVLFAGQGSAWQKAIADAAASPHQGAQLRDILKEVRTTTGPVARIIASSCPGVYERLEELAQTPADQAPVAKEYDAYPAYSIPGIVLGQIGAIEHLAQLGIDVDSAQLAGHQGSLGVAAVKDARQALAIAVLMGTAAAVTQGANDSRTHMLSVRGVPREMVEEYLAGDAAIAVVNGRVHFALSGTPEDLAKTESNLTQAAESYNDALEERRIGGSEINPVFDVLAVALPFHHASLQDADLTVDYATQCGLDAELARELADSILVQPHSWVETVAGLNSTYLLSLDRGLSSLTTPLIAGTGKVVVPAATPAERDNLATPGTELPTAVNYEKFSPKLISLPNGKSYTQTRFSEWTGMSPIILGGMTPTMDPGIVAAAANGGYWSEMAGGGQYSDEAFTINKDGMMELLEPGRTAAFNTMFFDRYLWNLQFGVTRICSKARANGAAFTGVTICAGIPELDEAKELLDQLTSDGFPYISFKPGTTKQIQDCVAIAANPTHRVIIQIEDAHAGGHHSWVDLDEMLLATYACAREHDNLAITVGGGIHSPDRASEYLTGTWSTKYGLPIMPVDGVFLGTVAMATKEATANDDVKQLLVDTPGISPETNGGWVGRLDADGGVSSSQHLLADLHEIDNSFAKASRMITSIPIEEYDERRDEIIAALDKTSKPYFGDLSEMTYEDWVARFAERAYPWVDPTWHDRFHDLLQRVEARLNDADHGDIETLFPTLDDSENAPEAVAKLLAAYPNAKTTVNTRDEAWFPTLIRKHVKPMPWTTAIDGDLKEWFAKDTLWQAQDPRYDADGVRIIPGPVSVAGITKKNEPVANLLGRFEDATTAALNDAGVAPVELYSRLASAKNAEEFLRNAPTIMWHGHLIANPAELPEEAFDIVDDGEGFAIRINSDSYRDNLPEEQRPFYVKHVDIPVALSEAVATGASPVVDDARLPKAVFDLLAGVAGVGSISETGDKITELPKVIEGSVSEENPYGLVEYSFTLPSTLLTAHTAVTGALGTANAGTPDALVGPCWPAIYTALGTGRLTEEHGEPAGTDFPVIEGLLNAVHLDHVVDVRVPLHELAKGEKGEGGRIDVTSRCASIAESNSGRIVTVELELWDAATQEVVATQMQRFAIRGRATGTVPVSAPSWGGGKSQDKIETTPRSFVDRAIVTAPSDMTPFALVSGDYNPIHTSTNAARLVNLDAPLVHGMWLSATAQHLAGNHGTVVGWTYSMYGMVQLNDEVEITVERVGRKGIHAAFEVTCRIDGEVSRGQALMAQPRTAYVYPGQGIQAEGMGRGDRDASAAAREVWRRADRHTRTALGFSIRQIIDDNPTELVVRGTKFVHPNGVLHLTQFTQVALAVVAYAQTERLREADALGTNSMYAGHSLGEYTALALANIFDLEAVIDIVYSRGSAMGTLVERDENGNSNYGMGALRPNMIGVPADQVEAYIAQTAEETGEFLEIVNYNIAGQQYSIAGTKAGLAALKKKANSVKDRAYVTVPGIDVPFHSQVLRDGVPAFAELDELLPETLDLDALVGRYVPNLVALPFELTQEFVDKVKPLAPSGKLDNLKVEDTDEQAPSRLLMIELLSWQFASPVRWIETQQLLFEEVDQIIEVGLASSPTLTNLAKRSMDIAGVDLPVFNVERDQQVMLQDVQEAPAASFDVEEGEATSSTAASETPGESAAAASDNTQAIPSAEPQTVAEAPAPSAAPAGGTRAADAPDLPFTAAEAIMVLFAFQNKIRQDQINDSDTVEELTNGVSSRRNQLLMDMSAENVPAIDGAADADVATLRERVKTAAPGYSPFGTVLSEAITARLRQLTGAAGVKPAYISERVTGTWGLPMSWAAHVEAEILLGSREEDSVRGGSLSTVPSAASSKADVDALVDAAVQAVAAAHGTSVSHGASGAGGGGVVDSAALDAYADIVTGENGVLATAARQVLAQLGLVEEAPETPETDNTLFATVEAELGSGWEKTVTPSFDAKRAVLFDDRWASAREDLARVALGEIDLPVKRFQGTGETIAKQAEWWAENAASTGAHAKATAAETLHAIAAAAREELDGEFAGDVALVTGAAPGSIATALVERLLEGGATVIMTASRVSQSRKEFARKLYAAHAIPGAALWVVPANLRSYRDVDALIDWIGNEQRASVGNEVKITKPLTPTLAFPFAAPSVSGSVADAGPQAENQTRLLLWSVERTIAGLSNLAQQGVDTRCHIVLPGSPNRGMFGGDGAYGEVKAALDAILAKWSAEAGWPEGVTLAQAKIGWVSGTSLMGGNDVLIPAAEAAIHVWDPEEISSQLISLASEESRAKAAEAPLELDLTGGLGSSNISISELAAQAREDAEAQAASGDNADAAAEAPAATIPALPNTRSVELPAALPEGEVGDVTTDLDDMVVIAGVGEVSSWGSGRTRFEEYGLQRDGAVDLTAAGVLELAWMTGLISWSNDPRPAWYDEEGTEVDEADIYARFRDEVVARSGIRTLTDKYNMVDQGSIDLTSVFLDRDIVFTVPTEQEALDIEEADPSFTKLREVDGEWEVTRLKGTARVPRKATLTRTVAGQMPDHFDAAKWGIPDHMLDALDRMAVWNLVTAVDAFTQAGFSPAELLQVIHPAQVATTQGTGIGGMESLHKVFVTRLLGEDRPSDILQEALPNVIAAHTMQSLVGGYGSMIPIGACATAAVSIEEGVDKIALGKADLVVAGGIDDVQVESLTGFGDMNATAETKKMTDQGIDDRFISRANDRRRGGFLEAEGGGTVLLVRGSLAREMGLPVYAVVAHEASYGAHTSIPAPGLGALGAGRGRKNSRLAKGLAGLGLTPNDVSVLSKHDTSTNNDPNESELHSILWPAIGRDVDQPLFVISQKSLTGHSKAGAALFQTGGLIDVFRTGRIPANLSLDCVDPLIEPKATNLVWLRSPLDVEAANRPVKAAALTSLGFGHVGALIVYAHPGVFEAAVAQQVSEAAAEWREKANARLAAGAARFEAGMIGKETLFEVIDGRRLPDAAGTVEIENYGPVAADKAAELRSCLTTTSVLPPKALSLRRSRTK

B1: phosphopantetheine:protein transferase (PPT1) enzyme from B. ammoniagenes, expressed in E. coli as a lacZ fusion protein (enzyme, part only; not given: N-terminal lacZ fusion residues)
chain, part: MLDNREAMTVGVDLVHIPGFAEQLSRPGSTFEQVFSPLERRHAQTRRDAAADATNSSLAGSRTEHLAGRWAAKEAFIKAWSQAIYGKPPVIEPDLVNFAEIEVLPDRWGRVALQLKGEVAAKLQESIDVELALSISHDGDYATAQCLLRYQR
For B1, the “fasA activity (radiochemical assay at 37 C for 15 minutes on partially purified E. coli extracts)” value was “only when the fasA cosmid (FA) and the pSU19/ppt1 (P) construct were both present was there any measurable fasA activity”.
